B1: MKP5 peptide (peptide)
chain: RPQDLNL
modifications: not fully specified
B2: DOCK7 peptide (peptide)
chain: RPASLNL
modifications: not fully specified
B3: KSR2 peptide (peptide)
chain: KKKSKPLNLKIH
modifications: not fully specified
B4: APBA2 peptide (peptide)
chain: RPKSLNL
modifications: not fully specified
B5: MYO9B peptide (peptide)
chain: RPTSLAL
modifications: not fully specified
B6: DOCK5 peptide (peptide)
chain: RPKSLQL
modifications: not fully specified
B7: DCX peptide (peptide)
chain: RKHKDLYLPL
modifications: not fully specified
B8: IRS1 peptide (peptide)
chain: RPTRLSL
modifications: not fully specified
B9: GAB3 peptide (peptide)
chain: RHRDKRLSLNLP
modifications: not fully specified
B10: PDE4B peptide (peptide)
chain: RPTTLPL
modifications: not fully specified
B11: ATF7 peptide (peptide)
chain: DPLHPTL
modifications: also: non-native Glu flanks added at both ends, number not given here
B12: JAZF1 peptide (peptide)
chain: KKIQPKLSLT
modifications: not fully specified
B13: AAKG2 peptide (peptide)
chain: KRRSLRVHIP
modifications: not fully specified
B14: CCNT2 peptide (peptide)
chain: KEKSGSLKLRIP
modifications: not fully specified
B15: RHDF1 peptide (peptide)
chain: LQRKKPPWLKLDIP
modifications: not fully specified
B16: JNK1 (as used in the fluorescence polarization titrations) (enzyme)
chain: MSRSKRDNNFYSVEIGDSTFTVLKRYQNLKPIGSGAQGIVCAAYDAILERNVAIKKLSRPFQNQTHAKRAYRELVLMKCVNHKNIIGLLNVFTPQKSLEEFQDVYIVMELMDANLCQVIQMELDHERMSYLLYQMLCGIKHLHSAGIIHRDLKPSNIVVKSDCTLKILDFGLARTAGTSFMMTPYVVTRYYRAPEVILGMGYKENVDLWSVGCIMGEMVCHKILFPGRDYIDQWNKVIEQLGTPCPEFMKKLQPTVRTYVENRPKYAGYSFEKLFPDVLFPADSEHNKLKASQARDLLSKMLVIDASKRISVDEALQHPYINVWYDPSEAEAPPPKIPDKQLDEREHTIEEWKELIYKEVMDLEERTKNGVIRGQPSPLGAAVINGSQHPSSSSSVNDVSSMSTDPTLASDTDSSLEAAAGPLGCCR

Ends that are not written are not given here.

For one assay, the target named is B16. As to the kind of experiment: FP.
For the molecule B1, the Kd (usually a measure of binding affinity in units of concentration) was 19.3 µM.

Molecule B2 had a Kd of 7.3 µM.

B3 had a Kd of 24.7 µM. This Kd lies about 3.4-fold higher than the previous one. Same read-out and setting: in the case of B4 it was 10.8 µM; in that of B5, 15.9 µM. Still for that read-out and setting: in the case of B6 it was 5.1 µM; in that of B7, 16.7 µM. With B8, binding was characterised by a dissociation constant (Kd) of 3.5 µM. Still for that read-out and setting: in the case of B9 it was 14.5 µM; in that of B10, 16.4 µM; in that of B11, 21.1 µM.

Another assay addresses ERK2 (as used in the fluorescence polarization titrations) (human, UniProt P28482 1-360). As to the kind of experiment: FP.
In turn, B12 gave a dissociation constant (Kd) of 15 µM. Same read-out and setting: in the case of B13 it was 17.5 µM; in that of B1, 84.7 µM; in that of B2, 51.2 µM. Still for that read-out and setting: in the case of B3 it was 13.5 µM; in that of B14, 14.4 µM; in that of B6, 31.8 µM. The same measure, in the same setting: in the case of B9 it was 22.6 µM.

The next assay has as its target p38α (as used in the fluorescence polarization titrations) (human, UniProt Q16539 1-360). Briefly: FP.
B12 yielded a Kd of 8.9 µM.

B13: the Kd amounted to 8.2 µM. The molecule B3 displayed a Kd of 4.9 µM. The same measure, in the same setting: in the case of B14 it was 24.5 µM; in that of B15, 1.2 µM; in that of B7, 29.5 µM. Same read-out and setting: in the case of B8 it was 74.6 µM; in that of B9, 5.2 µM.

A further assay deals with GAB3+ peptide. Briefly: FP.
B16 registered a Kd of 13.2 µM.

For the origin of these results see paper PMC4670726 (2015).
